Assay results published in patent US20240245796A1 (PROFOUNDBIO US, published 2024).

Tests used:
[1] = biological target: T1, cynomolgus FOLR1 protein, His Tag (ACRO F01-C52H8) (cynomolgus, UniProt A0A2K5U044 25-233); assay: ELISA, coated cyno FOLR1-His, supernatant 25x
T1 construct: Bought protein coated on ELISA plates; also called Cynomolgus/Rhesus macaque FOLR1, Protein, His Tag; not shown: His tag

[2] = biological target: T2, human FOLR1 protein, His Tag (ACRO FO1-H52H1) (human, UniProt P15328 25-233); assay: ratio of OD450 on hFOLR1 to OD450 on anti-human IgG Fc
T2 construct: Bought protein coated on ELISA plates; not shown: His tag
T2 sequence (P15328 25-233 limits assumed): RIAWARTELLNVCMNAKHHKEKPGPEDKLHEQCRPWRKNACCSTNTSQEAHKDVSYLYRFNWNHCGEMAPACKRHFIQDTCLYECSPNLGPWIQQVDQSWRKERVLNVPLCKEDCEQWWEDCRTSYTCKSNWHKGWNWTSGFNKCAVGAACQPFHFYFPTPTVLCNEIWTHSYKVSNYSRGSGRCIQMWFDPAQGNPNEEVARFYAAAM

[3] = biological target: T1, cynomolgus FOLR1 protein, His Tag (ACRO …); assay: ELISA, coated cyno FOLR1-His, supernatant 5x
[4] = biological target: T2, human FOLR1 protein, His Tag (ACRO …); assay: ELISA, coated hFOLR1-His, HEK293 supernatant
[5] = biological target: T1, cynomolgus FOLR1 protein, His Tag (ACRO …); assay: ELISA, coated cyno FOLR1-His, supernatant 1x
[6] = biological target: T2, human FOLR1 protein, His Tag (ACRO …); assay: ELISA, coated hFOLR1-His, supernatant 5x
[7] = biological target: T2, human FOLR1 protein, His Tag (ACRO …); assay: ELISA, coated hFOLR1-His, supernatant 1x
[8] = biological target: T2, human FOLR1 protein, His Tag (ACRO …); assay: ELISA, coated hFOLR1-His, supernatant 25x

T1 sequence (A0A2K5U044 entry or part of it): as the sequence (P15328 25-233 limits assumed) above, with I2T, W4R, R37K, A146P, H171Y counted along it

OD450 [1] [OD450] | Target binding/IgG level [2] | OD450 [3] [OD450] | OD450 [4] [OD450] | OD450 [5] [OD450] | OD450 [6] [OD450] | OD450 [7] [OD450] | OD450 [8] [OD450] | Binder
0.908 | 1.12 | 1.04 | 2.54 | 1.15 | 1.59 | 1.56 | 1.29 | F48 (antibody, V domains shown, Tested as full-length IgG with an IgG1 Fc from HEK293, as supernatant or purified; also called clone F48; anti-FOLR1 antibody F48) VH: EVQLLESGGGVVQPGRSLRLSCAASGFTFSSYGMHWVRQAPGKGLEWVAVISYDGSNKYYADSVKGRFTISRDNSKNTLYLHMNSLRAEDTAVYYCARPRAYYGAYGSSFDYWGQGTQVTVSS VL: EIVMTQSPSSVSASVGDRVAITCRASQGISSWLAWYQQKPGKAPKLLIYAASSLQSGVPSRFSGSGSGTDFTLTISSLQPEDFATYYCQQSYSTPLTFGGGTKVDIK
1.17 | 1.2 | 1.14 | 2.41 | 1.14 | 1.69 | 1.64 | 1.83 | F138 (antibody, V domains shown, Tested as full-length IgG with an IgG1 Fc, HEK293 supernatant; also called clone F138; anti-FOLR1 antibody F138) VH: EVQLLESGGGVVQPGRSLRLSCAASGFTFSSYGMHWVRQAPGKGLEWVAVISYDGSNKYYADSVKGRFTISTHNSKNTLYLQMNSLRAEDTAVYYCARPRAYYGAYGSSFDYWGQGTQVTVSS VL: EIVMTQSPSSVSASVGDRVAITCRASQGISSWLAWYQQKPGKAPKLLIYAASSLQSGVPSRFSGSGSGTDFTLTISSLQPEDFATYYCQQSYSTPLTFGGGTKVDIK
1.07 | 1.06 | 1.3 | 2.32 | 1.36 | 1.47 | 1.72 | 1.33 | F123 (antibody, V domains shown, Tested as full-length IgG with an IgG1 Fc from HEK293, as supernatant or purified; also called clone F123; anti-FOLR1 antibody F123) VH: EVQLLESGGGVVQPERSLRLSCAASGFTFSSYGMHWVRQAPGKGLEWVAVISYDGSNKYYADSVKGRFTISRANSKNTLYLQMNSLRAEDTAVYYCARPRAYYGAYGSSFDYWGQGTQVTVSS VL: EIVMTQSPSSVSASVGDRVAITCRASQGISSWLAWYQQKPGKAPKLLIYAASSLQSGVPSRFSGSGSGTDFTLTISSLQPEDFATYYCQQSYSTPLTFGGGTKVDIK
0.933 | 1.12 | 1.21 | 2.35 | 1.26 | 1.42 | 1.56 | 1.17 | F112 (antibody, V domains shown, Tested as full-length IgG with an IgG1 Fc from HEK293, as supernatant or purified; also called clone F112; anti-FOLR1 antibody F112) VH: EVQLLESGGGVVQPGRSLRLSCAASGFTFSSYGMHWVRQAPGKGLEWVAVISYDGSNKYYADSVKGRFTISRHNSKNTLYLQMNSLRAEDTAVYYCARPRAYYGAYGSSFDYWGQGTQVTVSS VL: EIVMTQSPSSVSASVGDRVAITCRASQGISSWLAWYQQKPGKAPKLLIYAASSLQSGVPSRFSGSGSGTDFTLTISSLQPEDFATYYCQQSYSTPLTFGGGTKVDIK
0.875 | 1.48 | 1.03 | 2.3 | 1.16 | 1.53 | 1.61 | 1.18 | F100 (antibody, V domains shown, Tested as full-length IgG with an IgG1 Fc from HEK293, as supernatant or purified; also called clone F100; anti-FOLR1 antibody F100) VH: EVQLLESGGGVVQPGRSLRLSCAASGFTFSSYGMHWVRQAPGKGLEWVAVISYDGSNKYYADSVKGRFTISRPNSKNTLYLQMNSLRAEDTAVYYCARPRAYYGAYGSSFDYWGQGTQVTVSS VL: EIVMTQSPSSVSASVGDRVAITCRASQGISSWLAWYQQKPGKAPKLLIYAASSLQSGVPSRFSGSGSGTDFTLTISSLQPEDFATYYCQQSYSTPLTFGGGTKVDIK

Continued, binder first:

Binder | OD450 [1] [OD450] | Target binding/IgG level [2] | OD450 [3] [OD450] | OD450 [4] [OD450] | OD450 [5] [OD450] | OD450 [6] [OD450] | OD450 [7] [OD450] | OD450 [8] [OD450]
F40 (antibody, V domains shown, Tested as full-length IgG with an IgG1 Fc from HEK293, as supernatant or purified; also called clone F40; anti-FOLR1 antibody F40) VH: EVQLLESGGGVVQPGRSLRLSCAASGFTFSSYAMHWVRQAPGKGLEWVAVISYDGSNKYYADSVKGRFIISRDNSKNTVYLQMNSLRAEDTAVYYCARPTYVFTYTGSSFDYWGQGTQVTVSS VL: DIQVTQSPSSLSASLGDTVSITCRASRGLTDSVAWYQQKPGQAPKLLIYAASTLQSGVPSRFGGSGSGSYFTLTITSLQPEDVATYYCQNYKSAPWTFGQGTKVEIK | 0.924 | 1.02 | 1.11 | 2.39 | 1.35 | 0.382 | 0.811 | 0.163
F1 (antibody, V domains shown, also called clone F1; anti-FOLR1 antibody F1) VH: EVQLLESGGGVVQPGRSLRLSCAASGFTFSSYGMHWVRQAPGKGLEWVAVISYDGSNKYYADSVKGRFTISRDNSKNTLYLQMNSLRAEDTAVYYCARPRAYYGAYGSSFDYWGQGTQVTVSS VL: EIVMTQSPSSVSASVGDRVAITCRASQGISSWLAWYQQKPGKAPKLLIYAASSLQSGVPSRFSGSGSGTDFTLTISSLQPEDFATYYCQQSYSTPLTFGGGTKVDIK | 0.994 | 1.08 | 1.26 | 2.43 | 1.38 | 1.45 | 1.66 | 1.18
F8 (antibody, V domains shown, Tested as full-length IgG with an IgG1 Fc from HEK293, as supernatant or purified; also called clone F8; anti-FOLR1 antibody F8) VH: EVQLLESGGGVVQHGRSLRLSCAASGFTFSSYGMHWVRQAPGKGLEWVAVISYDGSNKYYADSVKGRFTISRDNSKNTLYLQMNSLRAEDTAVYYCARPRAYYGAYGSSFDYWGQGTQVTVSS VL: EIVMTQSPSSVSASVGDRVAITCRASQGISSWLAWYQQKPGKAPKLLIYAASSLQSGVPSRFSGSGSGTDFTLTISSLQPEDFATYYCQQSYSTPLTFGGGTKVDIK | 1.06 | 1.12 | 1.28 | 2.45 | 0.896 | 1.65 | 1.67 | 1.31
F26 (antibody, V domains shown, Tested as full-length IgG with an IgG1 Fc from HEK293, as supernatant or purified; also called clone F26; anti-FOLR1 antibody F26) VH: EVQLLESGGGVVQRGRSLRLSCAASGFTFSSYGMHWVRQAPGKGLEWVAVISYDGSNKYYADSVKGRFTISRDNSKNTLYLPMNSLRAEDTAVYYCARPRAYYGAYGSSFDYWGQGTQVTVSS VL: EIVMTQSPSSVSASVGDRVAITCRASQGISSWLAWYQQKPGKAPKLLIYAASSLQSGVPSRFSGSGSGTDFTLTISSLQPEDFATYYCQQSYSTPLTFGGGTKVDIK | 1.02 | 1.21 | 1.21 | 2.43 | 1.24 | 1.51 | 1.64 | 1.48
